Read-outs that look alike come from different tables or passages of the source.
Tests used:
[1] = tested on: CCR5+ metastatic Triple Negative Breast Cancer; experiment: Phase Ib/II study, CTC/EMT/CAML assessment in blood (LifeTrac Assay); assay type: in vivo, human
Source text: Each treatment cycle consisted of 21 days. […] This treatment regimen was used for all subjects enrolled in the mTNBC study, unless otherwise indicated.
The blood sample for circulating tumor cells (CTC) and cancer associated macrophage-like cells (CAMLs) assessment was collected at baseline and subsequently at Day 1 of each treatment cycle to assess changes in CTCs and CAMLs after treatment and to perform correlative analysis between CCR5 expression and PD-L1 expression.
Creatv Microtech has developed a size based technology and detection methodology (LifeTrac Assay) that enables the collection and characterization of all cancer associated cells in the blood i.e., CTCs, epithelial mesenchymal transition cells (EMTs) and CAMLs.[Adams Cytometry 2015, Adams RSC 2014]. The CellSieve™ filtration platform is used to capture CAMLs and CTCs.

CCR5 = CCR5 (Homo sapiens, UniProt P51681); design: endogenous in cells; host or cells: CD4+ T cells; settings: cited from earlier work
Chain of CCR5 (P51681 whole entry): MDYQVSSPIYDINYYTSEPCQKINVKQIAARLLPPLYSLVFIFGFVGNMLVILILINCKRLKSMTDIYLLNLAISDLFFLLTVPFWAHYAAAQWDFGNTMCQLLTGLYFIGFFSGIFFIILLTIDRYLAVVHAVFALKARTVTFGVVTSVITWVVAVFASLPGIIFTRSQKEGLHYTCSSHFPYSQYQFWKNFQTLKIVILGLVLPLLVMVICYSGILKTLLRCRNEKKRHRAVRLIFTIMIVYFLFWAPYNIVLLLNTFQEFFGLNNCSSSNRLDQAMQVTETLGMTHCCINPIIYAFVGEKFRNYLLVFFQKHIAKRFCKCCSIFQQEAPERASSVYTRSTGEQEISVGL

[2] = human, in vivo; cited from earlier work
[3] = Subject 706-001, C1D1, with carboplatin
[4] = Subject 706-001, C2D1, with carboplatin
[5] = Subject 706-001, C3D1, with carboplatin
[6] = Subject 706-001, C4D1, with carboplatin
[7] = Subject 706-001, C5D1, with carboplatin
[8] = Subject 706-001, C6D1, with carboplatin
[9] = second subject, after two weeks of treatment, with carboplatin

B1: leronlimab: humanized monoclonal antibody to CCR5; humanized version of the murine mAb PA14 (antibody, chains of the INN, looked up, V domains shown)
VH: EVQLVESGGGLVKPGGSLRLSCAASGYTFSNYWIGWVRQAPGKGLEWIGDIYPGGNYIRNNEKFKDKTTLSADTSKNTAYLQMNSLKTEDTAVYYCGSSFGSNYVFAWFTYWGQGTLVTVSS
VL: DIVMTQSPLSLPVTPGEPASISCRSSQRLLSSYGHTYLHWYLQKPGQSPQLLIYEVSNRFSGVPDRFSGSGSGTDFTLKISRVEAEDVGVYYCSQSTHVPLTFGQGTKVEIK
In the case of B1, the CAML-Total [1, 3] is reported as 1, the CTC-Total [1, 3] is reported as 0 and the EMT-Total [1, 3] is reported as 2. For the same molecule, the “Largest CAML, PD-L1” value [1, 3] was 47 μm, the “Number of Apoptotic CTC, PD-L1” value [1, 3] was 0 and the “Number of Apoptotic CTCs, CCR5” value [1, 3] was 0. For the same molecule, the “Number of CAMLs, CCR5” value [1, 3] was 0, the “Number of CAMLs, PD-L1” value [1, 3] was 1 and the “Number of CTCs, CCR5” value [1, 3] was 0. The “Number of CTCs, PD-L1” value [1, 3] was 0, the “Number of EMTs, CCR5” value [1, 3] was 1 and the “Number of EMTs, PD-L1” value [1, 3] was 1. The CAML-Total [1, 4] was 3, the CTC-Total [1, 4] was 0 and the EMT-Total [1, 4] was 0. The “Largest CAML, CCR5” value [1, 4] was 27 μm, the “Largest CAML, PD-L1” value [1, 4] was 69 μm and the “Number of Apoptotic CTC, PD-L1” value [1, 4] was 0. The “Number of Apoptotic CTCs, CCR5” value [1, 4] was 0, the “Number of CAMLs, CCR5” value [1, 4] was 1 and the “Number of CAMLs, PD-L1” value [1, 4] was 2. For the same molecule, the “Number of CTCs, CCR5” value [1, 4] was 0, the “Number of CTCs, PD-L1” value [1, 4] was 0 and the “Number of EMTs, CCR5” value [1, 4] was 0. The “Number of EMTs, PD-L1” value [1, 4] was 0, the “Largest CAML, CCR5” value [1, 5] was 39 μm and the “Largest CAML, PD-L1” value [1, 5] was 30 μm. The “Number of Apoptotic CTC, PD-L1” value [1, 5] was 0, the “Number of Apoptotic CTCs, CCR5” value [1, 5] was 0 and the “Number of CAMLs, CCR5” value [1, 5] was 3. For the same molecule, the “Number of CAMLs, PD-L1” value [1, 5] was 1, the “Number of CTCs, CCR5” value [1, 5] was 0 and the “Number of CTCs, PD-L1” value [1, 5] was 0. For the same molecule, the “Number of EMTs, CCR5” value [1, 5] was 0, the “Number of EMTs, PD-L1” value [1, 5] was 0 and the CAML-Total [1, 6] was 1. For the same molecule, the CTC-Total [1, 6] was 0, the EMT-Total [1, 6] was 0 and the “Largest CAML, CCR5” value [1, 6] was 0 μm. For the same molecule, the “Largest CAML, PD-L1” value [1, 6] was 31 μm, the “Number of Apoptotic CTC, PD-L1” value [1, 6] was 0 and the “Number of Apoptotic CTCs, CCR5” value [1, 6] was 0. For the same molecule, the “Number of CAMLs, CCR5” value [1, 6] was 0, the “Number of CAMLs, PD-L1” value [1, 6] was 1 and the “Number of CTCs, CCR5” value [1, 6] was 0. The “Number of CTCs, PD-L1” value [1, 6] was 0, the “Number of EMTs, CCR5” value [1, 6] was 0 and the “Number of EMTs, PD-L1” value [1, 6] was 0. For the same molecule, the CAML-Total [1, 7] was 3, the CTC-Total [1, 7] was 0 and the EMT-Total [1, 7] was 0. For the same molecule, the “Largest CAML, CCR5” value [1, 7] was 33 μm, the “Largest CAML, PD-L1” value [1, 7] was 56 μm and the “Number of Apoptotic CTC, PD-L1” value [1, 7] was 0. For the same molecule, the “Number of Apoptotic CTCs, CCR5” value [1, 7] was 0, the “Number of CAMLs, CCR5” value [1, 7] was 1 and the “Number of CAMLs, PD-L1” value [1, 7] was 2. The “Number of CTCs, CCR5” value [1, 7] was 0, the “Number of CTCs, PD-L1” value [1, 7] was 0 and the “Number of EMTs, CCR5” value [1, 7] was 0. For the same molecule, the “Number of EMTs, PD-L1” value [1, 7] was 0, the CAML-Total [1, 8] was 8 and the CTC-Total [1, 8] was 0. For the same molecule, the EMT-Total [1, 8] was 0, the “CCR5 expression on cancer-associated cells” value ([1]; first subject, after approximately 11 weeks of treatment) was “large reductions in CCR5 expression” and the “circulating tumor cells (CTC) or putative metastatic tumor cells in the peripheral blood” value ([1]; first subject, following 16 weeks of treatment) was “no detectable circulating tumor cells (CTC) or putative metastatic tumor cells”. The “levels of CTC” value [1, 9] was “no detectable levels of CTC”, the “reduction in EMT cells” value [1, 9] was 70% and the CAML count ([1]; second subject, following at least two weeks of treatment, initial count 45) was 30. For the same molecule, the “decrease of total CTC+EMT counts” value ([1]; third subject, first two weeks of treatment, with carboplatin) was 75%, the “effect on cAMP levels” value (CCR5; added to CD4+ T cells alone) was “does not affect cAMP levels” and the “effect on cAMP levels” value (CCR5; administered with CCL5) was “diminishes the effect of CCL5 on cAMP levels”. For the same molecule, the adverse events [2] was “without significant adverse events reported”.

Source: patent US20220162327A1, “ANTI-CCR5 AGENTS AND METHODS OF TREATMENT THAT BLOCK CANCER METASTASIS OR ENHANCE CELL DEATH INDUCED BY DNA DAMAGING CHEMOTHERAPY” (CytoDyn Inc., priority 2019, published 2022)
